PMC5532214, “Natural variations in the biofilm-associated protein BslA from the genus Bacillus” (Scientific Reports, 2017)
Values belong to the molecule of their own block, whether it stands above or below them.

What was measured:
Assay in all cases: SEC; purified, untagged mature regions of the proteins analysed by size exclusion chromatography; SDS-PAGE with and without β-mercaptoethanol was run alongside
[1] = target: Bacillus amyloliquefaciens BslA(42-181) (Bacillus amyloliquefaciens FZB42)
[2] = target: Bacillus pumilus BslA(37-177) (Bacillus pumilus SAFR-032)
[3] = target: Bacillus licheniformis BslA(40-179) (Bacillus licheniformis DSM13)
[4] = target: the molecule itself

stoichiometry N [1]: 2
Molecule: Bacillus amyloliquefaciens BslA(42-181) (domain or fragment)

stoichiometry N [2]: 2
Molecule: Bacillus pumilus BslA(37-177) (domain or fragment)

stoichiometry N [3]: 2
Molecule: Bacillus licheniformis BslA(40-179) (domain or fragment)

B1: Bacillus subtilis BslA(42-181) (domain or fragment, B. subtilis, UniProt P71014 42-181, looked up)
chain: MRTQSTASLFATITGASKTEWSFSDIELTYRPNTLLSLGVMEFTLPSGFTANTKDTLNGNALRTTQILNNGKTVRVPLALDLLGAGEFKLKLNNKTLPAAGTYTFRAENKSLSIGNKFYAEASIDVAKRSTPPTQPCGCN
notes: BslA of Bacillus subtilis, truncated protein BslA 42-181 (mature region), on which the previous analyses were based; also called Bs-BslA; source: E. coli BL21 (DE3) pLysS, purified (Glutathione Sepharose, TEV cleavage, SEC)
stoichiometry N [4]: 2
